# Test results as given in PMC7735993, “Role of Arabidopsis Splicing factor SF1 in Temperature-Responsive Alternative Splicing of FLM pre-mRNA”.
# Target: His-AtSF1(1-562) (Arabidopsis thaliana, UniProt Q9LU44 1-562)
# Experiment: EMSA; 23 C; unlabeled self competitor (10-200x) reduces shift; LightShift Chemiluminescent RNA EMSA kit, 23 C, 30 min, 8% native PAGE; buffer, salt and pH not stated
# Settings: protein: recombinant; tags: His; label: 3' biotin
# Sequence of His-AtSF1(1-562) (Q9LU44 1-562): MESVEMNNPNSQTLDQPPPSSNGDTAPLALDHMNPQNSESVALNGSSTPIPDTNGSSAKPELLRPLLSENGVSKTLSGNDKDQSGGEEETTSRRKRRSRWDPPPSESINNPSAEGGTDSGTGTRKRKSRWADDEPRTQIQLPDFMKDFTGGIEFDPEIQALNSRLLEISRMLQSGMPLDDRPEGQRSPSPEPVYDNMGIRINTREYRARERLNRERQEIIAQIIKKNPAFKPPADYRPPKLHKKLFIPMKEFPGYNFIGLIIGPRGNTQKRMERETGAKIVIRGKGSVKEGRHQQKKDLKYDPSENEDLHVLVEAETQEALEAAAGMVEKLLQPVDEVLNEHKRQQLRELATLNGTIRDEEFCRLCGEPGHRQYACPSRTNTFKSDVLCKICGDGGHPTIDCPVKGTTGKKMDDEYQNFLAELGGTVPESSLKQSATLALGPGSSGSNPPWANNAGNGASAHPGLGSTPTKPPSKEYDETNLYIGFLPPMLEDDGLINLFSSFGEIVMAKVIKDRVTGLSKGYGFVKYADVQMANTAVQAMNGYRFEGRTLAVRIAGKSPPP
row,Binder,binding result
1,UUCUAAUGCAUUUUUGUUUUAUCU (ssRNA) [FLM BP1],binds
2,UUCUAAUAUUCUUCUGGAUGCGGUUUUUGGUGUUAU (ssRNA) [FLM BP2],binds
